Reference: patent US20050123944

System: BamHI
Assay: EMSA
Conditions: value is complex half-life, not a rate; 5 mM CaCl2, no Mg2+; 2 nM BamHI, 100 pM DNA, 6000-fold unlabeled competitor

DNA duplex with single BamHI site
complex half-life (min (half-life)): 39600
